According to patent US20200157212A1 (Pfizer, published 2020):

Target: T1, Human ROBO2 KSR mutant overexpressed on HEK293 cells (human, UniProt Q9HCK4 22-1378)
T1 construct: R100K and K102R already in the entry
T1 sequence: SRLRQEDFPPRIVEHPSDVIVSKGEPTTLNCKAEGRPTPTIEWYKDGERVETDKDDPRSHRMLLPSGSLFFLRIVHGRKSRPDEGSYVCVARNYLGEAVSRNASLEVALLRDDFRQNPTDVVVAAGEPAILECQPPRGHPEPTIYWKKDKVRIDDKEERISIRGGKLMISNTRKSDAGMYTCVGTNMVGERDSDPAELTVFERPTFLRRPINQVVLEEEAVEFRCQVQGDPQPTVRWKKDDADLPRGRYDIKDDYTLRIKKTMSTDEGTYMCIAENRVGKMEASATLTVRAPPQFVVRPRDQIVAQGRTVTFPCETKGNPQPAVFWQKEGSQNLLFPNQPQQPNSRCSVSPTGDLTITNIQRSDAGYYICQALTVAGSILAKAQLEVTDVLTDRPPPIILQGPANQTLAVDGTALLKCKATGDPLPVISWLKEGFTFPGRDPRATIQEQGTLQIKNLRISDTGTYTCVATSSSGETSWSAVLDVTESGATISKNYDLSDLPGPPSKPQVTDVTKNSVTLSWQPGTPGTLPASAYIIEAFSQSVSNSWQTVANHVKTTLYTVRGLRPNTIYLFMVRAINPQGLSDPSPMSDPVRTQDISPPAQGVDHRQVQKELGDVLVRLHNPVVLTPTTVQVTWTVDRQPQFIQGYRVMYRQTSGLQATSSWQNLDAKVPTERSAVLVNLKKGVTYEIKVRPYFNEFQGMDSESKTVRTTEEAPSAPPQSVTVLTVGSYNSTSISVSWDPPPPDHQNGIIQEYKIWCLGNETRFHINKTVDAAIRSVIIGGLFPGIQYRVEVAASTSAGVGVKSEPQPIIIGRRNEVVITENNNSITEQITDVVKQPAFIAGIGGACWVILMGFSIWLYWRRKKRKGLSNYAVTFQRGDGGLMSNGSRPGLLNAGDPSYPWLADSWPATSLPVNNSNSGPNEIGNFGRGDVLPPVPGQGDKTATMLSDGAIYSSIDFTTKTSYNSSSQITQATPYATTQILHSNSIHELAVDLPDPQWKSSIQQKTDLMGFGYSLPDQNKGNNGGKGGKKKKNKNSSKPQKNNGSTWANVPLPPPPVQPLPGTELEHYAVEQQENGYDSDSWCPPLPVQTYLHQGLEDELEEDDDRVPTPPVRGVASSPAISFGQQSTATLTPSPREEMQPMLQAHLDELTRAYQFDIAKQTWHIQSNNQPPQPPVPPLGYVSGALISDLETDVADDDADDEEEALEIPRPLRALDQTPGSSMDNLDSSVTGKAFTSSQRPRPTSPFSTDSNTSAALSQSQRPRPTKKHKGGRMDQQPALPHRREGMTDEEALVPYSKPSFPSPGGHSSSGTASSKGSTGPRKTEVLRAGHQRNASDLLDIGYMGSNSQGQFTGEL
Test: flow cytometry on HEK293 cells overexpressing the ROBO2-KSR mutant
Experimental: Binding of the antibodies was detected using a secondary fluorochrome conjugated anti-human IgG F(ab′)₂ antibody and samples were analyzed on a Fortessa cytometer (BD Biosciences). The fold ROBO2 selectivity was calculated as the geometric mean fluorescence intensity (Geo MFI) with ROBO2 cells/Geo MFI with ROBO1 cells. A fold change higher than 3 was considered to be ROBO2 specific (Table 2, Fold Selectivity). Some affinity matured clones had increased ROBO1 reactivity, for example Abcs 55, CTI-R2-10 and CTIR2-13.
Based upon several criteria, Abcs25 and Abcs35 were selected for further characterization. Using flow cytometry, improvement in the binding EC₅₀ to human ROBO2 relative to the parental 93H2 was evaluated. […] Using HEK293 cells overexpressing either cynomolgus monkey ROBO2 or rat ROBO2, the relative dose-dependent binding of 93H2, Abcs25 and Abcs35 was evaluated as described above. […] Association of ROBO2 Ig1-Ig2-His (ROBO2) was measured over 5 minutes and dissociation was followed for a period of 10 minutes.
RSK specificity for Abcs35, along with 93H2 and Abcs25, also was confirmed in a cell-based binding assay using flow cytometry. […] As described above in Example 3, dose-dependent binding was evaluated.

B1: Abcs35 (antibody, human IgG1, kappa)
heavy: EVQLVQSGAEVKKPGASVKVSCKASGYTFTGYYMHWVRQAPGQGLEWMGWINPKNGDTEFPQKFQGRVTMTRDTSITTAYMDLSRLRSDDTAVYYCARESGDDAFDIWGQGTMVTVSSASTKGPSVFPLAPSSKSTSGGTAALGCLVKDYFPEPVTVSWNSGALTSGVHTFPAVLQSSGLYSLSSVVTVPSSSLGTQTYICNVNHKPSNTKVDKKVEPKSCDKTHTCPPCPAPEAAGAPSVFLFPPKPKDTLMISRTPEVTCVVVDVSHEDPEVKFNWYVDGVEVHNAKTKPREEQYNSTYRVVSVLTVLHQDWLNGKEYKCKVSNKALPAPIEKTISKAKGQPREPQVYTLPPSREEMTKNQVSLTCLVKGFYPSDIAVEWESNGQPENNYKTTPPVLDSDGSFFLYSKLTVDKSRWQQGNVFSCSVMHEALHNHYTQKSLSLSPGK
light: DIVMTQSPSSLSASVGDRVTITCRASQSISSYLNWYQQKPGKAPKLLIYAASSLQSGVPSRFSGSGSGTDFTLTISSLQPEDFATYYCQQSVGLFFGGGTKVEIKRTVAAPSVFIFPPSDEQLKSGTASVVCLLNNFYPREAKVQWKVDNALQSGNSQESVTEQDSKDSTYSLSSTLTLSKADYEKHKVYACEVTHQGLSSPVTKSFNRGEC
notes: fully human IgG1; VH of Ab96 with VL of Ab123
B1: no binding.
